The values that follow come from patent WO2019096294A1.

In the assay the target is His-tagged human prothrombin (human) (UniProt P00734). In words: binding ELISA; His-tagged human prothrombin coated on plate. A general note: In an ELISA, binding on a coated surface is turned into a signal by an enzyme label.

The term EC50 denotes the concentration needed to bring the measured effect to its halfway point. Ichorcumab (antibody) gave a half-maximal effective concentration (EC50) of 0.282 µg/mL.
